Results as given in the supplement of paper PMC10126150.
± gives the standard deviation of the averaged measurements.

tested on: ATP; test: switch fluorescence ratio, 500 uM ATP over buffer (Cy3 cluster intensity, sum of 5 cycles each) (fold (ratio)); higher = stronger signal-on switching upon ATP binding; sequences stand for … in TCGTCGGCAGCGTCAGATGTGTATAAGAGACAGTTTTTTTTTTTTTTTTTTTTTTTTT…TC; details: aptamer strand: ATP DNA aptamer (quencher-CACCTGGGGGAGTATTGCGGAGGAAGG + anchor), 100 nM annealed; ATP concentration: 500 uM
Procedure, shortened: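 Imaging in selection buffer was followed by imaging after 15 min with 500 uM ATP at 22 °C, for Cy3-labelled switching-strand clusters annealed to 100 nM quencher-labelled ATP aptamer on a modified Illumina MiSeq flow-cell. Five of these buffer/ATP cycles ran, separated by NaOH stripping and re-annealing. The fluorescence ratio per cluster is summed target-cycle over summed buffer-cycle Cy3 intensity, averaged per switch-domain sequence; clusters outside 100-1000 RFU were removed.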
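Note: ATP exposure 15 min at 22 °C before imaging.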

Sequence | switch fluorescence ratio
AAAAAAACCT | 1.28 ± 0.39
AAAAAAAGAT | 1.01 ± 0.039
AAAAAAGAAA | 0.982 ± 0.015
AAAAAAGACG | 1.05 ± 0.017
AAAAAATTGC | 1.04 ± 0.058
AAAAAATTTT | 1.01 ± 0.023
AAAAACATAG | 1.03 ± 0.017
AAAAACGGGG | 1.009 ± 0.0075
AAAAACGTAT | 1.03 ± 0.04
AAAAACTAAT | 0.992 ± 0.088
AAAAAGCTGG | 1.03 ± 0.038
AAAAAGGATA | 0.9884 ± 0.0013
AAAAAGTGCC | 1.07 ± 0.11
AAAAAGTTTG | 1 ± 0.04
AAAAATAGTT | 1.03 ± 0.07
AAAAATCGAA | 1.02 ± 0.05
AAAAATGACG | 0.991 ± 0.028
AAAAATGGAG | 0.958 ± 0.017
AAAAATTTGG | 1 ± 0.06
AAAACACGCT | 1.18 ± 0.2
AAAACAGTT | 1.05 ± 0.02
AAAACCAGGG | 1.08 ± 0.033
AAAACCAGTA | 1.01 ± 0.075
AAAACCTCAC | 1.56 ± 0.13
AAAACGACAG | 1.04 ± 0.013

Sequence | switch fluorescence ratio
AAAACTTAGA | 0.956 ± 0.041
AAAACTTAGG | 0.978 ± 0.012
AAAACTTCCT | 2.5 ± 0.67
AAAAGAGTGT | 1.01 ± 0.023
AAAAGATAGC | 0.989 ± 0.04
AAAAGATTGT | 1.043 ± 0.0085
AAAAGCATGT | 1.06 ± 0.03
AAAAGGAGGA | 1.02 ± 0.043
AAAAGGATCT | 1.02 ± 0.029
AAAAGGATTG | 0.982 ± 0.04
AAAAGGGCAT | 1.01 ± 0.015
AAAAGGGCTT | 1 ± 0.012
AAAAGGGTGA | 1.02 ± 0.01
AAAAGGTTTC | 1.02 ± 0.024
AAAAGTCTGA | 1.01 ± 0.041
AAAAGTGGGG | 1.02 ± 0.019
AAAAGTGTCG | 1.06 ± 0.056
AAAATAAATG | 1.01 ± 0.017
AAAATAAGGA | 0.986 ± 0.018
AAAATAATTG | 1.03 ± 0.025
AAAATACATT | 0.993 ± 0.039
AAAATACCTA | 1.15 ± 0.14
AAAATAGGGG | 1.04 ± 0.044
AAAATCATTG | 0.9615 ± 0.0027
AAAATCGAGC | 1.02 ± 0.015

Sequence | switch fluorescence ratio
AAAATCGAGG | 1.016 ± 0.004
AAAATCGCGG | 0.9844 ± 0.0018
AAAATCGTGA | 1.009 ± 0.0097
AAAATGAAAA | 0.987 ± 0.0071
AAAATGATGG | 1 ± 0.0073
AAAATGGTAA | 1.001 ± 0.0057
AAAATGTGGT | 1 ± 0.015
AAAATGTGTT | 1.01 ± 0.018
AAAATTAGGC | 0.919 ± 0.063
AAAATTGGGA | 1.01 ± 0.035
AAAATTTACG | 1.1 ± 0.16
AAAATTTGGT | 1.04 ± 0.029
AAAATTTTGC | 1.12 ± 0.2
AAACACTAAG | 1.08 ± 0.016
AAACAGCGTA | 1.01 ± 0.032
AAACAGGGTG | 1.05 ± 0.05
AAACATACCT | 1.4 ± 0.078
AAACATAGGA | 0.992 ± 0.063
AAACATATAT | 1.018 ± 0.0098
AAACCAGGGG | 1.54 ± 0.11
AAACCCGCCC | 1.8128 ± 0.00028
AAACCGATGG | 1.046 ± 0.0085
AAACGATATT | 1.015 ± 0.0026
AAACGGACGC | 1.2 ± 0.023
AAACGGAGTG | 1 ± 0.023

Sequence | switch fluorescence ratio
AAACGGGCAG | 0.985 ± 0.019
AAACGGTTAC | 1.24 ± 0.038
AAACTATGGA | 0.961 ± 0.022
AAACTGGAAA | 0.99 ± 0.016
AAACTGGAG | 1.04 ± 0.053
AAACTGGTAT | 0.982 ± 0.02
AAACTGTTTC | 1.02 ± 0.016
AAACTTAATC | 1.04 ± 0.05
AAACTTGGCT | 1.024 ± 0.0074
AAACTTTAGT | 0.987 ± 0.018
AAAGAAAGAT | 1.08 ± 0.17
AAAGAAAGTC | 1.043 ± 0.006
AAAGAAGACG | 1.0319 ± 0.00064
AAAGAATTTC | 0.981 ± 0.038
AAAGACAAAT | 0.999 ± 0.042
AAAGAGAATA | 0.987 ± 0.036
AAAGAGACGC | 1.03 ± 0.068
AAAGAGAGAA | 0.9998 ± 0.0093
AAAGAGAGTT | 0.9964 ± 0.0065
AAAGAGTCGT | 0.9883 ± 0.0027
AAAGAGTGAA | 0.9989 ± 0.009
AAAGAGTGAT | 1.022 ± 0.0062
AAAGATATC | 0.984 ± 0.02
AAAGATGAGG | 0.974 ± 0.029
AAAGCAGGTA | 0.989 ± 0.029
